In ChEMBL document CHEMBL2074420, “Taxol transport by human intestinal epithelial Caco-2 cells” (Drug Metab Dispos, 1998) one finds Km data, which are given here for one substance.

Usually Km stands for the concentration of substrate that gives half-maximal velocity.

This data set relates to CC(=O)O[C@H]1C(=O)[C@@]2(C)[C@H]([C@H](OC(=O)c3ccccc3)[C@]3(O)C[C@H](OC(=O)[C@H](O)[C@@H](NC(=O)c4ccccc4)c4ccccc4)C(C)=C1C3(C)C)[C@]1(OC(C)=O)CO[C@@H]1C[C@@H]2O. As to the kind of experiment: TP_TRANSPORTER: transepithelial transport (basal to apical) in Caco-2 cells. Type of data set: functional, cell-based. On the technique in general: Caco-2 cells form a polarised layer with tight junctions and transporters.

In the case of “ATP-dependent translocase ABCB1 (Homo sapiens)”, the Km was 16.5 µM.
